Experimental data from publication PMC314469, “Protein Interaction Networks by Proteome Peptide Scanning” (PLoS Biology, 2004).

T1: Abp1 SH3 (ABP1_YEAST), P15891
T1 chain: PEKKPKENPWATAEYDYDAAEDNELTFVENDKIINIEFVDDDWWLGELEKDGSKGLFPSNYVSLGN


Biological target: T1, Abp1 SH3 (ABP1_YEAST), P15891
Experiment: SPOT array

Row | Binder | normalised SPOT signal, Boehringer light units (BLU); mean over the file's lines of this peptide
1 | SVVISKNPDFFKP [YOR160W 317-329] | 62.4
2 | SVYSNYLPKGNRP [YMR167W 278-290] | 216
3 | SYILEELPIHLRP [YPL110C 407-419] | 140
4 | SYNINSDPVITRP [YPR022C 958-970] | 90.3
5 | SYPSAIQNVQPRKP [YFR022W 627-640] | 105
6 | SYPGSTRITLPRRP [YBR122C 34-47] | 568
7 | TAGHKLSVRVPTKP [YDL227C 82-95] | 638
8 | TAIRTVMPNLLKP [YOR118W 248-260] | 109
9 | TSGPHGSPDFFKP [YBR208C 1266-1278] | 64.2
10 | TSLSIVRPNDSKP [YMR185W 853-865] | 54.1
11 | TSPHTENFQIPSKP [YBR058C 192-205] | 66.6
12 | TDELSKFPFIDKP [YKR086W 737-749] | 42.7
13 | TDGNEEKPLLPTRP [YPR171W 199-212] | 65.4
14 | TDIHKEDPVDKKP [YML061C 94-106] | 200
15 | TDMVLIPAGVPRKP [YKL085W 88-101] | 122
16 | TDSGRNGPRSGKP [YNL251C 479-491] | 36.5
17 | TDVTFSYPGAQKP [YPL226W 815-827] | 108
18 | TEEEIKYLEEPYKP [YPL088W 324-337] | 102
19 | TEKHELIIPTPSKP [YCL027W 383-396] | 57
20 | TFDVPASPQSKKP [YOL153C 56-68] | 113

Row | Binder | normalised SPOT signal, Boehringer light units (BLU); mean over the file's lines of this peptide
21 | TFEEFQSPIYRKP [YIL110W 72-84] | 98.3
22 | TFTGLIGMNDPPRP [YGL167C 571-584] | 83.7
23 | TGVSIKNPRPSRP [YPR096C 5-17] | 1030
24 | THALGAAIDPPRRP [YCL048W 21-34] | 53.7
25 | THTNLAPPPTMKP [YHR102W 753-765] | 136
26 | TIADTLQPGLPHKP [YJL045W 457-470] | 127
27 | TIKRKRAYSLPLRP [YKR098C 130-143] | 133
28 | TIWNTIIKFDPGRP [YKL178C 248-261] | 180
29 | TKAKKEKPKPPKP [YMR044W 280-292] | 1330
30 | TKFDDEPPLADKP [YML109W 280-292] | 133
31 | TKKAKIIFTAPTRP [YIR002C 128-141] | 87.4
32 | TKLSTHKASSPSRP [YHR102W 715-728] | 170
33 | TKSEYTNAELPAKP [YMR011W 36-49] | 67.7
34 | TKSNGKDKSRPPRP [YIL095W 739-752] | 141
35 | TKVSNEYPNSPKP [YGL122C 280-292] | 146
36 | TKVTNSKFRTPLRP [YBL009W 142-155] | 137
37 | TLAKELYPGNFRP [YPL015C 81-93] | 54
38 | TLEYLRSPKLYKP [YJR024C 74-86] | 193
39 | TLITFMVPRFDKP [YBR115C 740-752] | 0
40 | TLRLLYNPSLSKP [YHR100C 9-21] | 61

Row | Binder | normalised SPOT signal, Boehringer light units (BLU); mean over the file's lines of this peptide
41 | TLTSSSNPTIPKP [YBL047C 1258-1270] | 129
42 | TMFSGVSAFVPNRP [YJR061W 698-711] | 451
43 | TMNTIYVPPLRRP [YGR127W 236-248] | 3360
44 | TNGPRYSPQNPRP [YMR124W 350-362] | 749
45 | TNIIDKGVQSPPKP [YDR176W 125-138] | 140
46 | TNMEFQYPGTSKP [YLR249W 670-682] | 93.7
47 | TNSNVPDPSTPSKP [YML016C 58-71] | 78.1
48 | TNTVDVTPKENKP [YOL148C 219-231] | 40.3
49 | TPLSKPKPFMHKP [YBL031W 191-203] | 11300
50 | TPPLESGPLFKRP [YDR379W 561-573] | 55.6
51 | TRKSVNIKSWPLKP [YNL226W 110-123] | 124
52 | TSKHWVLPPRPRP [YKL109W 65-77] | 3940
53 | TSKMLKPPKQRRP [YDR389W 475-487] | 617
54 | TSLFDNIPSIYRP [YGL169W 124-136] | 43.4
55 | TSSSPLGPSAAKP [YDL224C 233-245] | 133
56 | TTAQDGSSALPSKP [YLR431C 386-399] | 133
57 | TTGLNGSPTRGKP [YLL003W 876-888] | 83.1
58 | TTKGENIKITPQKP [YJR122W 470-483] | 166
59 | TTKKQENPQWLRP [YBL014C 33-45] | 126
